This experiment deals with phosphocellulose-purified tubulin (bovine (endogenous in bovine brain)) (UniProt Q6B856). In words: native gel or EMSA.

Values joined by “and” are separate entries in the source; they are usually repeats but may differ in a detail not shown here. Equal values may be shown once.

A word on the stoichiometry N: it is a count of units in the complex or per binding partner. With “phosphocellulose-purified tubulin (from UniProt Q6B856 1-445) (complex)”, the stoichiometry N was 4 and 6 and 8.

The values are drawn from PMC2275616.
